The source of these data is patent publication US20220356221A1 (ASKGENE PHARMA, published 2022).

The target of this assay is human IL-12 receptor on HEK-Blue IL-12 reporter cells (human, UniProt P42701 24-662; Q99665 24-862). Kind of assay: cell-based or functional assay.
human IL-12 receptor on HEK-Blue IL-12 reporter cells, sequence (Q99665 24-862, chain 2 of 2, other chains not shown): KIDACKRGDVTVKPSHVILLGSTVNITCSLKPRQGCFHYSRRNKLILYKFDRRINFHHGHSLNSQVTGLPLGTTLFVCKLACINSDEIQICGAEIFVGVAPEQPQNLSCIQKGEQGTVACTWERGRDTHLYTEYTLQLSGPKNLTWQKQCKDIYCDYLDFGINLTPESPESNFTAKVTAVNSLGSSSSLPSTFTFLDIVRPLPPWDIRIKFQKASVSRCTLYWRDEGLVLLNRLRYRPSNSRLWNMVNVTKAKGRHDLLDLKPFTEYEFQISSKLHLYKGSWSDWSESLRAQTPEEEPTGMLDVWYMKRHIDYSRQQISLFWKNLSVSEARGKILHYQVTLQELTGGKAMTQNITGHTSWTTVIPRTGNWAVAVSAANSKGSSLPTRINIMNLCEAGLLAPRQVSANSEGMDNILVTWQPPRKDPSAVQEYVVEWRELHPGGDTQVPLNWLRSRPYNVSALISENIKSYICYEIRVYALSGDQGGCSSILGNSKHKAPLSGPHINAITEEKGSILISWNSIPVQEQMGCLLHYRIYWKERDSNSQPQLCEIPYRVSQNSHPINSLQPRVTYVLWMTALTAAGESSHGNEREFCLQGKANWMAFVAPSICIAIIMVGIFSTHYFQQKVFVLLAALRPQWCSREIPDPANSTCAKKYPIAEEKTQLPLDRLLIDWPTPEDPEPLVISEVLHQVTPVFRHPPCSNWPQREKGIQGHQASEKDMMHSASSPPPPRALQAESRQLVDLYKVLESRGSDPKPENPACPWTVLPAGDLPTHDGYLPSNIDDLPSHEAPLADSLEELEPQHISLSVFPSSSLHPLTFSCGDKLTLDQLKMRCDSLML

B1: IL-12 prodrug JR3.105.5 after protease treatment (activated) (Fc fusion)
chain: DKTHTCPPCPAPELLGGPSVFLFPPKPKDTLMISRTPEVTCVVVDVSHEDPEVKFNWYVDGVEVHNAKTKPREEQYASTYRVVSVLTVLHQDWLNGKEYKCKVSNKALPAPIEKTISKAKGQPREPQVYTLPPCRDELTKNQVSLWCLVKGFYPSDIAVEWESNGQPENNYKTTPPVLDSDGSFFLYSKLTVDKSRWQQGNVFSCSVMHEALHNHYTQKSLSLSPGAGGGGSGGGGSGGGGSIWELKKDVYVVELDWYPDAPGEMVVLTCDTPEEDGITWTLDQSSEVLGSGKTLTIQVKEFGDAGQYTCHKGGEVLSHSLLLLHKKEDGIWSTDILKDQKEPKNKTFLRCEAKNYSGRFTCWWLTTISTDLTFSVKSSRGSSDPQGVTCGAATLSAERVRGDNKEYEYSVECQEDSACPAAEESLPIEVMVDAVHKLKYENYTSSFFIRDIIKPDPPKNLQLKPLKNSRQVEVSWEYPDTWSTPHSYFSLTFCVQVQGKSKREKKDRVFTDKTSATVICRKNASISVRAQDRYYSSSWSEWASVPCSGGGGSGGGGSGGGGSRNLPVATPDPGMFPCLHHSQNLLRAVSNMLQKARQTLEFYPCTSEEIDHEDITKDKTSTVEACLPLELTKNESCLNSRETSFITNGSCLASRKTSFMMALCLSSIYEDLKMYQVEFKTMNAKLLMDPKRQIFLDQNMLAVIDELMQALNFNSETVPQKSSLEEPDFYKTKIKLCILLHAFRIRAVTIDRVMSYLNAS
Turning to B1, the “EC50 in the cell-based IL-12 reporter assay (HEK-Blue IL-12, STAT4-inducible SEAP, OD630)” value is about 50 pM and the “fold activation based on the EC50 values (after protease treatment against prior to it)” value was about 18 fold.
